Measurements from article doi:10.1101/2022.10.21.513107 (bioRxiv, 2022).
Residue numbers refer to the chain shown, from its start.

B1: sdAb C38 (VHH)
VHH: QVQLVESGGGVVQAGGSLRLSCAPSGNIFSINTMGWHRQAPGKQREFVARIRSSGQTNYADSVKGRFTISKDSAKDTVYLQMDNLQPEDSAVYYCTFNSGGWGVERKRRDYWGQGTQVTVSS
B2: sdAb C26 (VHH)
VHH: QVQLVESGGGLVQAGGSLRLSCAASGSIYSINAMGWYRQAPGKQRELVAVITSSGSTNYADAVKGRFTISRDNAKNQVYLQMNSLKPEDTAVYYCHAWSPFRGSFSGDALDAWGQGTQVTVSS
B3: sdAb A37 (VHH)
VHH: QVKLEESGGGLVQAGGSLRLSCVASGSTFIITDMAWYRQAPGKQRELVAGITLRGGTNYADSVKGRFTISRDNVKNTVTLQMNSLKPEDTAVYYCNAKVAEWRNRPDYWGQGTQVTVSS
B4: sdAb 2A03 (VHH)
VHH: QVQLVESGGGLVQAGGSLRLSCAASGRTSSINIMGWYRQPPGKQREMVATIATGGTTNYAESVKGRFTISRDGAKFVYLQLNDLKPEDTAVYYCNAYRYAVGKNQRAWDIWGQGTQVTVSS
B5: sdAb 2A04 (VHH)
VHH: B1 VHH with Q3K, V5E, S90T, S99T, K107Q

How the values were obtained:
His6MBP-4C/4S E6 = His6MBP-4C/4S E6 (Human papillomavirus type 16, reference …, UniProt P03126, stabilised); test: far-Western, overlay or dot blot
[1] = target: endogenous HPV16 E6 protein of SiHa cells (Human papillomavirus type 16, SiHa …, UniProt P03126); test: immunostaining of cells or tissue

Row | Binder | binding result (His6MBP-4C/4S E6) | binding result [1]
1 | B1 | binds | 
2 | B2 |  | binds
3 | B3 |  | binds
4 | B4 |  | binds
5 | B5 |  | binds
